Test results taken from the nanobody polyreactivity screen of Harvey et al. (2022).

assay: yeast display, Sf9 membrane polyspecificity reagent, FACS + sequencing; frameworks hold sequencing errors
In short: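 Polyreactivity labels are assigned by the sorting gate from which each nanobody was recovered. The gates were low and high (top ~1%), set on anti-HA fluorescence for expression and streptavidin fluorescence for reagent binding. Before sorting, galactose-induced (36–48 hours) yeast display cells were stained for 1 hour at 4 °C with 10% biotinylated, detergent-solubilized Sf9 membrane reagent.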

Row | Sequence | polyreactivity (PSR sort gate)
1 | QVQLVESGGGLVQAGGSLRLSCAASGSTFWYYAMGWYRQEPGKERELVASITYSGGSTYYADSVKGRFTISRDNAKNTVYLQMNSLKPEDTAVYYCAAQSPAYYTKSYWGQGTQVTVSS | low polyreactivity
2 | QVQLVESGGGLVQAGGSLRLSCAASGRTFIGNALGWYRQAPGKERELVASITRSGGSTYYADSVKGRFTISRDNAKNTVYLQMNSLKPEDTAVYYCAARVYTYYYDLHKRYYWGQGTQVTVSS | high polyreactivity
3 | QVQLVESGGGLVQAGGSLRLSCAASGRILPSNAMGWYRPAPGKERELVAGITSGGSTDYADSVKGRFTISRDNAKNTVYLQMNSLKPEDTAVYYCNKPFPYYPDGPNGYDYWGQGTQVTVSS | low polyreactivity
4 | QVQLVESGGGLVQAGGSLRLSCAASGSTFTYYAMGWYRQAPGKERELVAAIDFSGTSTYYADSVKGRFTISRDNAKNTVYLQMNRLKPEDTAVYYCAASQSWYWGGAHDNGEFGYWGQGTQVTVSS | low polyreactivity
5 | QVQLVESGGGLVHAGGSLRLSCAPSRIFVYNAMGWYRQAPGKERELVATITSSGGITYYADSVKGRFTISRDNAKNTVYLQMNSLKPEDTAVYYCNKVRRYYYRTHNDFWGQGTQVTVSS | high polyreactivity
6 | QVQLVESGGGLVQAGGSLRLSCAASGITFYKYAMGWYRQAPGKERELVASISNGGNTNYADSVKGRFTISSDNAKNTVYLQMNSLKPEDTAVYYCAAGRQWYSYYRNDYWGQGTQVTVSS | high polyreactivity
7 | QVQLVESGGGLVQAGGSLRLSCAASGSTFVDYAMGWDRQAPGKERELVAGINGSGGSTYYADSVKGRFTISRDNAKNTVYLQMNSLKPEDTAVYYCAKDGSNRLALPAWDYNYWGQGTQVTVSS | low polyreactivity
8 | QVQLVESGGGFVQAGGSLRLSCAASGSTFSHYTMGWYSQAPGNERELLAAINYGGASTYYADSVKGRFTISRDNAKNTVYLQMNSQKPEDTAVYYCAAANRPSEQDNYWGQGTQVTVSS | low polyreactivity
9 | QVQLQESGGGLVQAGGCLSCTASGTIFGQGDMGWYRQAPGKERELVATINDGASTYYADSVKGRFTISRDKAKNTVYLQKNSLKPDDTAVYYCAVCTDITTYFGYWGQGTQVTVSS | low polyreactivity
10 | QVQLGESGGGLVQAGGSLRLSCAASGLTFPVYPMGWYRQAPGKEREFVTAITYNGGRTYYADSVKGRFTISRDNAKNTVYLQMNSLKPEDTAVYYCNAARSRGANLVPPYRLYYWGQGTQVTVSS | low polyreactivity
11 | QVQLVESGGGLVQAGGSLRLSCAASGFTSTAYAMGWYRQAPGKERELVAVISSGSSTHYADSVKGRFTISRDNAKNTVYLQMNSLKPEDTAVYYCAARIRTRYFTGFYYWGQGTQVTVSS | high polyreactivity
12 | QVQLVESGGGLVQAGGSLRLSCAASGLIFRKNAMGWYRQAPGKEMELVAAISSSDSSTYADSVKGRCTISRDNAKNTVYLQMNSLKPEDTAVYYCAAASYNWLDWVTREYWGQGTQVTVSS | low polyreactivity
13 | QVQLVESGGGLVQAGGSLRLSCAASGGTFGSYARGWYRQAPGNEREFVAAIRRGTSTYYADSVQGRFTISRDNAKNTVYLQMNRLKPEDTEVYYCAATPQAHSERYYYQRKYDYWGQGTQVTVSS | low polyreactivity
14 | QDQLVESGGGLVQAGGSLRLSGDASGSTFSKYVMGWYRQAPGKERELVAAISGGDRTYYADSVKGRFTISRDNAKNTVYLQMNSLKPEDTAVYFCAAEVLKTRWSYDYWGQGTQVTVSS | high polyreactivity
15 | QVQLVESCGGLVQAGGSLRLSCSATGSTSVANAMGWYRQAPGKEREIVAAITGYGVSTYYADSVKGRFTISRDNAKNTVFLQMNSLKPEDTAVYYCATRGVSTSRPGYYWGQGTQVSVSS | high polyreactivity
16 | QVQLVESGGGLVQAGGSLRLSCAASGTTFYNYAMGWYRQAPGKERELVAAITSSGGSTYYADSVKGRFTISRDNAKNTVYLQMNSLKPEDTAVYYCNAVDGYGLVHSISTYEMDYWGQGTQVTVSS | low polyreactivity

Row | Sequence | polyreactivity (PSR sort gate)
17 | QVQLVESGGGLVQAGGSLRLSCAASGRTFPGNAMGWYRQAPGKERELVAAISSRGGSTYYADSVKGRFTISRDNAKYTVYFQMNSLKPEDTALYYCARRYLPYGGYYYWGQGTQVTVSS | high polyreactivity
18 | QVQLVESGGGLVQAGGSLRLSCAASGFTIWYTMGSYRQAPGKEREFLAAITSGGGSTYYAESVKGRFTISRDNAKNTVYFQMNSLKPEDTAVYYCAARERSYRAYGYWRQGTQVTVSS | high polyreactivity
19 | QVQLVESGGGLVRAGGSLRLSCAASGRNKDNVMGWYRQAPGKERELVAAITRSAGRTYYADSVKGRFTISRDNAKNTVYLQMNSLIPEDTAVYYFATADAHYSAAGEDYWGQGTQVTVSS | low polyreactivity
20 | QVQLVESGGGLVQAGGSLRLTSAASGRTFTSNVMGWYSQAPGKEWEVVAAISSSGGRTYYADSVKGRFTISRDNAKNTVYLQMNSLKPEDTAVYYCAGDGDPEYPRYGYWGKGTQVTVSS | high polyreactivity
21 | QVQLVESGGGLVQAGGSLRLSCAASGSTSKNYAMGWYRQAPGKERELVAAITRGTSTNYADSVKGRFTISRDNAKNTVYLQMNSLKPEDTAVYYCNVERHRVWDYQWREEDDYWGQGTQVTVSS | low polyreactivity
22 | QVQHVESGGGLVQAGGSLRLSGAASGRTFYKNTMGWSRQAPGKERELVAGISQRGGRTYYADSVKGRFTISRDYAKNTVYLQMNSLNPEDTAVYYCAVRSYVHGFDYWGQGTQVTVSS | high polyreactivity
23 | QVQLVESGGGLVQAGASLRLSCAASGSIFGGYAMGWYRQAPGKERELVAAISRSGRTNYADSVKGRFTISRDNAKNTVYLQMNSLKPEDTAVYYCAVDKRYGRVVGRDYDYWGQGTQVTVSS | high polyreactivity
24 | QVQLVESGGGLVHAGGSLRLSCAASGRISFYYALGWYRQAPGKERALVATISRGDITYYADSVKGRFTISRDNAKNTVYLQLNSLKPEDTAVYYCNARNNYWWYGPGYVYWGQGTQVTVSS | low polyreactivity
25 | QVQLVESGGGLVQAGGSLRLSCSASGSIFDAYAMGWYRQAPGKEREMVAAISKGGTRTYYADSVKGRFTISRDNAKNTVYLQMNSLIPEDTAFYYCNSYYRREPDDGDYDYWGQGTQVTVSS | high polyreactivity
26 | QVQLVESGGGLVQAGGSLRLSCAASGRTFHGYAMGWYRQAPGKERELVAAINASGGRTYYADSVKGRFTISRDNAKNTVYLQMNSLKPEDTAVYYCAVYSASFRYGLAYDYWGQGTQVTVSS | high polyreactivity
27 | QVQLVESGGGLVQAGGSLRLSCAASGRIFQWYAMGSYRQAPGKERELVATISDGDSTNYADSVKGRFTISRDNAKNTVFAQMNSLKTEDTEVYYCAALDSYYDSYYWYDYWGQGTQVTVSS | high polyreactivity
28 | QVQLVESGGGLVQAGGSLRLSCAASGSIFEGNARGWYRQAPGKERELVAAISTTGGITYYADAVKGRFTISRANAKNTVDLQKNSLKPEDTAVDYCAADPSQPRNDSSNYDYWGQGTQVTVSS | low polyreactivity
29 | QVQLVESGGGLVQAGGSLRLSCAASGYTFGSYAMGWYRQAPGKERELVAAIRGSGGSTYYADSVKGRFTISRDNAKNTVYLQMNSLKPEDTAVYYCATSVRRGGRQLYNYWGQGTQVTVSS | high polyreactivity
30 | QVQLVESGGGLVQAGGSLRLSCAASGRIFSLYAMGWYRQAPGKERELVAAISWSGGTTYDADSVKGRFTISRDNAKNTVYLQMNSLKPEDTAVYYCAAQYIGKKRFNYWGQGTQVTVSS | high polyreactivity
31 | QVQLVESGGGLVQVGGSLRLSCAASGITLSYYAMGWYRQAPGKEREFVASITVSRTSTYYADSVKGRFTISRDNAKNTVYLQMNSLKPEDTAVYYCAAYAYQYRFSGYGYWGQGTQVTVSS | low polyreactivity
